Experimental data published in patent publication US8840891 (RSR, dated 2014).

Experiments:
[1] = target: TSHR with Arg109 mutated to Alanine (human) (UniProt P16473); assay: cell-based or functional assay
[2] = target: wild type human TSHR (human) (UniProt P16473); assay: cell-based or functional assay
[3] = target: human TSHR with Asp276 mutated to Alanine, expressed in CHO cells (human) (UniProt P16473); assay: cell-based or functional assay
[4] = target: TSHR coated onto tubes (human) (UniProt P16473); assay: TSHR coated tubes, competitor 125I-M22 IgG

5C9 IgG (antibody)
Mutated/wild type (%); 5C9 0.01 µg/mL + TSH [1]: 89% | Mutated/wild type (%); 5C9 0.1 µg/mL + TSH [1]: 43% | Mutated/wild type (%); 5C9 1.0 µg/mL + TSH [1]: 69% | Mutated/wild type (%); 5C9 10 µg/mL + TSH [1]: 117% | Mutated/wild type (%); 5C9 100 µg/mL + TSH [1]: 46% | Mutated/wild type (%); 5C9 100 µg/mL only [1]: 147% | cyclic AMP; 5C9 0.01 µg/mL + TSH (fmol/cell well) [1]: 9650 | cyclic AMP; 5C9 0.1 µg/mL + TSH (fmol/cell well) [1]: 1720 | cyclic AMP; 5C9 1.0 µg/mL + TSH (fmol/cell well) [1]: 827 | cyclic AMP; 5C9 10 µg/mL + TSH (fmol/cell well) [1]: 827 | cyclic AMP; 5C9 100 µg/mL + TSH (fmol/cell well) [1]: 561 | cyclic AMP; 5C9 100 µg/mL only (fmol/cell well) [1]: 335 | cyclic AMP; 5C9 0.01 µg/mL + TSH (fmol/cell well) [2]: 10800 | cyclic AMP; 5C9 0.1 µg/mL + TSH (fmol/cell well) [2]: 4010 | cyclic AMP; 5C9 1.0 µg/mL + TSH (fmol/cell well) [2]: 1210 | cyclic AMP; 5C9 10 µg/mL + TSH (fmol/cell well) [2]: 706 | cyclic AMP; 5C9 100 µg/mL + TSH (fmol/cell well) [2]: 1230 | cyclic AMP; 5C9 100 µg/mL only (fmol/cell well) [2]: 228 | Cyclic AMP produced; 5C9 0.01 µg/mL + pTSH 3 ng/mL; Experiment 1 (fmol/cell well) [3]: 26200 | Cyclic AMP produced; 5C9 0.01 µg/mL + pTSH 3 ng/mL; Experiment 2 (fmol/cell well) [3]: 21200 | Cyclic AMP produced; 5C9 0.1 µg/mL + pTSH 3 ng/mL; Experiment 1 (fmol/cell well) [3]: 16900 | Cyclic AMP produced; 5C9 0.1 µg/mL + pTSH 3 ng/mL; Experiment 2 (fmol/cell well) [3]: 7320 | Cyclic AMP produced; 5C9 1.0 µg/mL + pTSH 3 ng/mL; Experiment 1 (fmol/cell well) [3]: 4790 | Cyclic AMP produced; 5C9 1.0 µg/mL + pTSH 3 ng/mL; Experiment 2 (fmol/cell well) [3]: 1510 | Cyclic AMP produced; 5C9 10 µg/mL + pTSH 3 ng/mL; Experiment 1 (fmol/cell well) [3]: 1380 | Cyclic AMP produced; 5C9 10 µg/mL + pTSH 3 ng/mL; Experiment 2 (fmol/cell well) [3]: 1300 | Cyclic AMP produced; 5C9 100 µg/mL + pTSH 3 ng/mL; Experiment 1 (fmol/cell well) [3]: 565 | Cyclic AMP produced; 5C9 100 µg/mL + pTSH 3 ng/mL; Experiment 2 (fmol/cell well) [3]: 288 | Cyclic AMP produced; 5C9 100 µg/mL only (no TSH); Experiment 1 (fmol/cell well) [3]: 602 | Cyclic AMP produced; 5C9 100 µg/mL only (no TSH); Experiment 2 (fmol/cell well) [3]: 314 | Mutated/wild type (%) of cyclic AMP; 5C9 0.01 µg/mL + pTSH 3 ng/mL; Experiment 1 [3]: 152% | Mutated/wild type (%) of cyclic AMP; 5C9 0.01 µg/mL + pTSH 3 ng/mL; Experiment 2 [3]: 151% | Mutated/wild type (%) of cyclic AMP; 5C9 0.1 µg/mL + pTSH 3 ng/mL; Experiment 1 [3]: 301% | Mutated/wild type (%) of cyclic AMP; 5C9 0.1 µg/mL + pTSH 3 ng/mL; Experiment 2 [3]: 164% | Mutated/wild type (%) of cyclic AMP; 5C9 1.0 µg/mL + pTSH 3 ng/mL; Experiment 1 [3]: 631% | Mutated/wild type (%) of cyclic AMP; 5C9 1.0 µg/mL + pTSH 3 ng/mL; Experiment 2 [3]: 230% | Mutated/wild type (%) of cyclic AMP; 5C9 10 µg/mL + pTSH 3 ng/mL; Experiment 1 [3]: 378% | Mutated/wild type (%) of cyclic AMP; 5C9 10 µg/mL + pTSH 3 ng/mL; Experiment 2 [3]: 240% | Mutated/wild type (%) of cyclic AMP; 5C9 100 µg/mL + pTSH 3 ng/mL; Experiment 1 [3]: 164% | Mutated/wild type (%) of cyclic AMP; 5C9 100 µg/mL + pTSH 3 ng/mL; Experiment 2 [3]: 101% | Mutated/wild type (%) of cyclic AMP; 5C9 100 µg/mL only (no TSH); Experiment 1 [3]: 201% | Mutated/wild type (%) of cyclic AMP; 5C9 100 µg/mL only (no TSH); Experiment 2 [3]: 151% | % inhib of 125I-M22 IgG binding at 0.01 µg/mL [4]: 5% | % inhib of 125I-M22 IgG binding at 0.1 µg/mL [4]: 6% | % inhib of 125I-M22 IgG binding at 1 µg/mL [4]: 14% | % inhib of 125I-M22 IgG binding at 10 µg/mL [4]: 22% | % inhib of 125I-M22 IgG binding at 100 µg/mL [4]: 53%
